*1 amine or outer side, *2 acyl side, *3 side chain or, on linkers, in order; H or OH if unused. Where a SMILES comes first, the peptide text is derived from it. Bridges are numbered along the chain shown (N, C = ends). Where no end group is shown, it is not given here. sulfonated dichloro‑BODIPY dye = Sulfonated dichloro-BODIPY dye that cyclises the two flanking Cys through two SNAr reactions; sulfonated dichloro‑BODIPY = sulfonated dichloro-BODIPY dye attached to the two flanking Cys by SNAr reactions; X1 = COc1ccc(C2=C3C=C(S(=O)(=O)O)C([*:2])=[N+]3[B-](F)(F)n3c2cc(S(=O)(=O)O)c3[*:1])cc1
How the values were obtained:
[1] = target: TrkA-expressing cells (HeLa+A) (UniProt P04629); test: Cell survival assay in serum-free media, TrkA-expressing cells (HeLa+A); assay type: cell-based; details: Figure 8 summary
Procedure: Cells were seeded at a density of 2 × 10^3 cells/well in complete media in 96-well plates and incubated for 24 h to allow cells to adhere. Cells were washed with DPBS, and then, media were swapped for serum-free media of the same type as the complete media. […] Cells were suspended and live cells counted using flow cytometry (CytoFLEX LX).

[2] = target: TrkB-expressing cells (HEK+B) (UniProt Q16620); test: Cell survival assay in serum-free media, TrkB-expressing cells (HEK+B); assay type: cell-based; details: Figure 8 summary
Procedure: Loop mimics 5 were screened in cell survival assays to evaluate their efficacy in stimulating Trk receptors (Figure 2). Mimics were assayed for the ability to rescue cells from cell death when incubated in serum-free media (SFM) in the absence of NTs (a test for “agonism”) or in the presence of a suboptimal NT concentration (a test for NT “modulation”). Simultaneously, these assays may confirm test mimics are not cytotoxic at lower doses (though cytotoxicity assays were also performed up to higher doses, Figure S1). […] All the test compounds were screened at 50 μM concentrations initially, and then, dose response curves were measured for the hits (Table 1 and Figure 3).
We were forced to use transfectants in different cell lines (HeLa, HEK-293, NIH-3T3 expressing TrkA, B, and C, respectively) due to difficulties in obtaining transfected cells derived from a single wild type; however, none of the cells used express TrkA-C prior to transfection. Throughout this paper, HeLa cells are denoted as “HeLa”, and their TrkA transfectants are “HeLa+A”. Similarly, HEK-293 cells are “HEK”; their TrkB transfectants are HEK+B. NIH-3T3 cells are “NIH”, and their TrkC transfectants are “NIH+C”.
Cells were seeded at a density of 2 × 10^3 cells/well in complete media in 96-well plates and incubated for 24 h to allow cells to adhere. Cells were washed with DPBS, and then, media were swapped for serum-free media of the same type as the complete media. Cells were then treated with 50 μM compound either alone or in conjunction with suboptimal neurotrophin corresponding to the Trk receptor expressed for 48 h. Cells were washed with DPBS buffer twice and detached from the plate with 50 μL of trypsin for 3 min at 37 °C. Trypsinization was quenched with 100 μL of complete media. Cells were suspended and live cells counted using flow cytometry (CytoFLEX LX). Cell survival was normalized from cell count (CC) readings relative to optimal neurotrophin (NT = 100%) and DMSO (0%) utilizing GraphPad Prism 10.2, followed by statistical analysis via one-way ANOVA and Dunnett’s t test compared to the DMSO control. Dose response versions of this assay were conducted following the same procedure, but the data was analyzed in GraphPad Prism 10.2 using the nonlinear fit: {agonist} vs response – variable slope (four parameters) function.

[3] = target: TrkC-expressing cells (NIH+C) (UniProt Q16288); test: Cell survival assay in serum-free media, TrkC-expressing cells (NIH+C); assay type: cell-based; details: Figure 8 summary
Procedure: Loop mimics 5 were screened in cell survival assays to evaluate their efficacy in stimulating Trk receptors (Figure 2). Mimics were assayed for the ability to rescue cells from cell death when incubated in serum-free media (SFM) in the absence of NTs (a test for “agonism”) or in the presence of a suboptimal NT concentration (a test for NT “modulation”). Simultaneously, these assays may confirm test mimics are not cytotoxic at lower doses (though cytotoxicity assays were also performed up to higher doses, Figure S1). […] All the test compounds were screened at 50 μM concentrations initially, and then, dose response curves were measured for the hits (Table 1 and Figure 3). […]
Cells were seeded at a density of 2 × 10^3 cells/well in complete media in 96-well plates and incubated for 24 h to allow cells to adhere. […] Cells were suspended and live cells counted using flow cytometry (CytoFLEX LX). Cell survival was normalized from cell count (CC) readings relative to optimal neurotrophin (NT = 100%) and DMSO (0%) utilizing GraphPad Prism 10.2, followed by statistical analysis via one-way ANOVA and Dunnett’s t test compared to the DMSO control. Dose response versions of this assay were conducted following the same procedure, but the data was analyzed in GraphPad Prism 10.2 using the nonlinear fit: {agonist} vs response – variable slope (four parameters) function.

p75 = details: cited from earlier work
TrkC = details: cited from earlier work
[4] = test system: primary adult cortical neurons; test: Primary adult cortical neuron assay (neurite outgrowth and survival); assay type: cell-based, mouse; details: data not shown
From the text: We next decided to test the effects of 5c(ii) on primary mouse adult cortical neurons. These neurons naturally express TrkA[84] and therefore provide a more clinically relevant substrate to test compound leads in than analogous Trk-expressing transfectants. In addition, using neurons extracted from adult mice provide increased relevance to neurodegenerative and other nervous-system related diseases and injury, since most of these primarily occur in adult populations.[85],[86] To determine any potential for preclinical applications, 5c(ii) (5 μM) was incubated with primary cortical neurons from 6-week-old male mice at the time of plating, and neuronal survival and neurite outgrowth were quantified.
Figure 7 5c(ii) promotes neuroprotection. Primary adult cortical neurons were extracted from 6-week-old male mice and plated on 384-well PDL-coated plastic bottom plates at 10,000 cells/well. 5c(ii) at 5 μM concentration was added at the time of plating. 48 h after plating, the cells were fixed to conduct immunocytochemistry. Graph represents the mean ± SEM of (a) total neurite outgrowth per cell and (b) number of valid neurons per well. Representative images of cortical neurons treated with (c) vehicle and (d) 5 μM 5c(ii). Student’s t test. N = 3–5. *p < 0.05.
Cortical neuron assay was conducted as previously described.[85] Briefly, wild-type 6-week-old C57Bl/6 male mice were euthanized using CO2, and the brains were removed. The cortex was isolated and transferred to a MACS C-tube and then dissociated using the Miltenyi gentleMACS octo-dissociator on a preset protocol designed for adult rodent brains. […] Images were quantified using the Neurite Outgrowth Analysis Module in MetaXpress 6 software (Molecular Devices). For quantification, the number of valid neurons is determined by quantifying the number of TUBB3^+/DAPI^+ cells in a well with ≥10 μm of total neurite outgrowth. Total neurite outgrowth is determined by dividing the length of all neurites in a well by the number of valid neurons in that respective well. […]

[5] = target: T1, TrkA (on HeLa-TrkA transfectants) (UniProt P04629 33-796); test: cell-based or functional assay
[6] = target: T1, TrkA (on HeLa-TrkA transfectants); test: cell-based or functional assay; remark: listed apart in the source
[7] = target: T2, TrkC (on NIH3T3-TrkC transfectants) (UniProt Q16288 32-839); test: cell-based or functional assay
[8] = target: T1, TrkA (on HeLa-TrkA transfectants); test: cell-surface fluorescence binding on live cells (plate reader); serial dilution of the intrinsically fluorescent compound in serum-free media on adherent Trk-transfected cells, 2.5 h, washed with DPBS, dissolved in 1% SDS, ex 540/25 nm, em 620/40 nm; fluorescence of the Trk-negative parent cells subtracted; one site - specific binding fit; details: one partner purified
[9] = target: T3, TrkB (on HEK293-TrkB transfectants) (UniProt Q16620 32-822); test: cell-based or functional assay
[10] = target: T3, TrkB (on HEK293-TrkB transfectants); test: cell-surface fluorescence binding on live cells (plate reader); serial dilution of the intrinsically fluorescent compound in serum-free media on adherent Trk-transfected cells, 2.5 h, washed with DPBS, dissolved in 1% SDS, ex 540/25 nm, em 620/40 nm; fluorescence of the Trk-negative parent cells subtracted; one site - specific binding fit; details: one partner purified
[11] = target: T2, TrkC (on NIH3T3-TrkC transfectants); test: cell-based or functional assay; remark: listed apart in the source
[12] = target: T2, TrkC (on NIH3T3-TrkC transfectants); test: cell-surface fluorescence binding on live cells (plate reader); serial dilution of the intrinsically fluorescent compound in serum-free media on adherent Trk-transfected cells, 2.5 h, washed with DPBS, dissolved in 1% SDS, ex 540/25 nm, em 620/40 nm; fluorescence of the Trk-negative parent cells subtracted; one site - specific binding fit; details: one partner purified

T1 sequence (P04629 33-796): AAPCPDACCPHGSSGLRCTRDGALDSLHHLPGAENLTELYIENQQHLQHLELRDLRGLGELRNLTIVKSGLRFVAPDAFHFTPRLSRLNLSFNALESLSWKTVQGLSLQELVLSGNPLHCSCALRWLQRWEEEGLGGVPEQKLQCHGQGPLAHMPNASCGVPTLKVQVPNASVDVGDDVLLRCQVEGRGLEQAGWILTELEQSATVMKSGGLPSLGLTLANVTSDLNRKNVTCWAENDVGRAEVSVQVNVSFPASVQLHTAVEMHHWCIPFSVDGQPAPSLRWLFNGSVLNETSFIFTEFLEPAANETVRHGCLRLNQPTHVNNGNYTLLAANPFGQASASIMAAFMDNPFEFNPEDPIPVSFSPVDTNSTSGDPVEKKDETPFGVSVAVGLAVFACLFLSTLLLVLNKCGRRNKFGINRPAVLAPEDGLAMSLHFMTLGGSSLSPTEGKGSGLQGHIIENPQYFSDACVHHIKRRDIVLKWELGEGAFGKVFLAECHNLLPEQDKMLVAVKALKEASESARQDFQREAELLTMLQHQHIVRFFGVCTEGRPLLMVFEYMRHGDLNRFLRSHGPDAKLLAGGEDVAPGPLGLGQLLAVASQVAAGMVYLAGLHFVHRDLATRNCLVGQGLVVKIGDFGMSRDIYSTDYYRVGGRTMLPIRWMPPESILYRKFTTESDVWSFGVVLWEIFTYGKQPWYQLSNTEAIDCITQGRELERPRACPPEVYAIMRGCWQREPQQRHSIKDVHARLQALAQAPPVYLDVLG
Sequence of TrkB-expressing cells (HEK+B) (Q16620 32-822): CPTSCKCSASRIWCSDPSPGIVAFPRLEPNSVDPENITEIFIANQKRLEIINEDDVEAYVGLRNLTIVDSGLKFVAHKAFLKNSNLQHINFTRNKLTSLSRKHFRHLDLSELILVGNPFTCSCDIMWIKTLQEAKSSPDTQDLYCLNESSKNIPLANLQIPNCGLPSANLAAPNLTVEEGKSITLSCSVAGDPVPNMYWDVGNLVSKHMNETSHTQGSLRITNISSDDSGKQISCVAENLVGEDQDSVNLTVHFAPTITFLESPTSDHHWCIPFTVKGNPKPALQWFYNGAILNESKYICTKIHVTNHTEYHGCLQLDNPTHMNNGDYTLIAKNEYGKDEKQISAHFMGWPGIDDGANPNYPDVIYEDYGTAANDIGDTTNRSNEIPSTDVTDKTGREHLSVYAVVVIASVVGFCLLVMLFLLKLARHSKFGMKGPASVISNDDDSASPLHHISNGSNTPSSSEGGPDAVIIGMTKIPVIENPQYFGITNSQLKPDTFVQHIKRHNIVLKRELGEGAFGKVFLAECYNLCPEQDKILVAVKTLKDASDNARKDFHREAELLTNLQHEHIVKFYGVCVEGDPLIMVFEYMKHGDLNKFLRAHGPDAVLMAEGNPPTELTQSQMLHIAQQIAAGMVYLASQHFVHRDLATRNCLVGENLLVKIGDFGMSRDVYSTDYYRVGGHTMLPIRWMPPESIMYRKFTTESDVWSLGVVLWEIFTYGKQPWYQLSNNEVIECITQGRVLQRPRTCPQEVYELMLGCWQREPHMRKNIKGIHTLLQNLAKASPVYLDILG
T3 sequence (Q16620 32-822): as above
T2 sequence (Q16288 32-839): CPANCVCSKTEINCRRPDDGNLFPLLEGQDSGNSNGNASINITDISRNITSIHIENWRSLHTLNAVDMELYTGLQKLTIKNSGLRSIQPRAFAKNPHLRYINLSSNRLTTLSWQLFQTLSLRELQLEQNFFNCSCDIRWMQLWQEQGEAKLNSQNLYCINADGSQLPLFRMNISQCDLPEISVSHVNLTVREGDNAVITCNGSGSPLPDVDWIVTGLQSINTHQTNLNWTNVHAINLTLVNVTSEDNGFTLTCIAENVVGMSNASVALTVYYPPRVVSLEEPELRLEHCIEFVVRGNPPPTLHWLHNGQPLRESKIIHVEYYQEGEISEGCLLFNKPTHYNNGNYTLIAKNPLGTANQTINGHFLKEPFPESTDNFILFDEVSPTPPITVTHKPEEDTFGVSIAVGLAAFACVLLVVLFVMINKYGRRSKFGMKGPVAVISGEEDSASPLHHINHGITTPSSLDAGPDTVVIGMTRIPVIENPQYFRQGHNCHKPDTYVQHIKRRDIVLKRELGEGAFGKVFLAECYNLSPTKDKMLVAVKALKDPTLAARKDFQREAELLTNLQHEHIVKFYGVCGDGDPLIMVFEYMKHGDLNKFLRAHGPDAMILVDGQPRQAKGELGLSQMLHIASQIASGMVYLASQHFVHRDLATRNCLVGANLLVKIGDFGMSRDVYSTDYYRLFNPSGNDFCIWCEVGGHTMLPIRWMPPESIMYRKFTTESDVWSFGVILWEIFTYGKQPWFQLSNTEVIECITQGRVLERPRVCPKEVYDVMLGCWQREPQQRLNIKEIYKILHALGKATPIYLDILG
Sequence of TrkC-expressing cells (NIH+C) (Q16288 32-839): as above
Sequence of TrkA-expressing cells (HeLa+A) (P04629 33-796): as the sequence (P04629 33-796) above

COc1ccc(C2=C3C=C(S(=O)(=O)O)C4=[N+]3[B-](F)(F)n3c2cc(S(=O)(=O)O)c3SC[C@H](NC(C)=O)C(=O)N[C@@H](CC(=O)O)C(=O)N[C@@H](CCC(=O)O)C(=O)N[C@@H](CCCCN)C(=O)N[C@@H](CCC(N)=O)C(=O)N[C@H](C(N)=O)CS4)cc1 [5a(iii)m] (Ac-CDEKQC-NH2; linker 1-6 via X1; N-terminus and C-terminus assumed)
result (Trk activity assigned) [1]: TrkA modulator

COc1ccc(C2=C3C=C(S(=O)(=O)O)C4=[N+]3[B-](F)(F)n3c2cc(S(=O)(=O)O)c3SC[C@H](NC(C)=O)C(=O)N[C@@H](CC(=O)O)C(=O)N[C@@H](CCSC)C(=O)N[C@@H](CO)C(=O)NCC(=O)N[C@H](C(N)=O)CS4)cc1 [5b(i)] (Ac-CDMSGC-NH2; linker 1-6 via X1; N-terminus and C-terminus assumed)
result (Trk activity assigned) [2]: TrkB agonist

COc1ccc(C2=C3C=C(S(=O)(=O)O)C4=[N+]3[B-](F)(F)n3c2cc(S(=O)(=O)O)c3SC[C@H](NC(C)=O)C(=O)N[C@@H](C(C)C)C(=O)N[C@@H](CO)C(=O)N[C@@H](CCCCN)C(=O)NCC(=O)N[C@H](C(N)=O)CS4)cc1 [5b(ii)] (Ac-CVSKGC-NH2; linker 1-6 via X1; N-terminus and C-terminus assumed)
result (Trk activity assigned) [2]: TrkB agonist

CC[C@H](C)[C@@H]1NC(=O)[C@H](CC(=O)O)NC(=O)[C@@H](NC(C)=O)CSc2c(S(=O)(=O)O)cc3n2[B-](F)(F)[N+]2=C(SC[C@@H](C(N)=O)NC(=O)CNC(=O)[C@H](CCCNC(=N)N)NC1=O)C(S(=O)(=O)O)=CC2=C3c1ccc(OC)cc1 [5c(i)] (Ac-CDIRGC-NH2; linker 1-6 via X1; N-terminus and C-terminus assumed)
result (Trk activity assigned) [3]: TrkB/C agonist | result (Trk activity assigned) [2]: TrkB/C agonist

COc1ccc(C2=C3C=C(S(=O)(=O)O)C4=[N+]3[B-](F)(F)n3c2cc(S(=O)(=O)O)c3SC[C@H](NC(C)=O)C(=O)N[C@@H](CCC(=O)O)C(=O)N[C@@H](CC(N)=O)C(=O)N[C@@H](CC(N)=O)C(=O)N[C@@H](CCCCN)C(=O)N[C@H](C(N)=O)CS4)cc1 [5c(iii)] (Ac-CENNKC-NH2; linker 1-6 via X1; N-terminus and C-terminus assumed)
result (Trk activity assigned) [3]: TrkC agonist

NCCCC[C@@H]1NC(=O)[C@H](CCC(=O)O)NC(=O)c2cc([N+](=O)[O-])ccc2OCC[C@@H](C(=O)NCC(=O)O)NC1=O [D3]
binding to p75 (p75): does not bind | binding to TrkC (TrkC): does not bind | effect in primary adult cortical neuron assay [4]: no measurable effect

B1: cyclo-organopeptide 5c(ii) (peptide)
peptide: CTQNSC
modifications: linker 1-6 via sulfonated dichloro‑BODIPY dye
notes: flanking Cys of the CX1X2X3X4C-peptide; also called NT-3 loop (ii) mimic; source: synthetic peptide (Fmoc SPPS), cyclised onto BODIPY, preparative HPLC
EC50 of survival of HeLa-TrkA cells in serum-free media, with suboptimal neurotrophin (0.2 nM NGF) [5]: 0.3 µM | EC50 of survival of HeLa-TrkA cells in serum-free media, without NT [5]: 4.5 µM | IC50 of the decrease of pAKT signalling (ELFI) in PC12 cells (rat, endogenous TrkA) when competed with 10 ng/mL NT; pair blocked: NGF and TrkA [6]: 7 μM | IC50 of the decrease of pMAPK signalling (ELFI) in PC12 cells (rat, endogenous TrkA) when competed with 10 ng/mL NT; pair blocked: NGF and TrkA [6]: 7 μM | IC50 of the decrease of pAKT signalling (ELFI) in NIH+C cells when competed with 10 ng/mL NT; pair blocked: NT-3 and TrkC [7]: 7 μM | IC50 of the decrease of pMAPK signalling (ELFI) in NIH+C cells when competed with 10 ng/mL NT; pair blocked: NT-3 and TrkC [7]: 35 μM | Kd [8]: 91 ± 2 nM

B2: cyclo-organopeptide 5b(ii) (peptide)
chain: CVSKGC
modifications: linker 1-6 via sulfonated dichloro‑BODIPY dye
EC50 of survival of HEK293-TrkB cells in serum-free media, with suboptimal neurotrophin (0.6 nM BDNF) [9]: 2.8 µM | EC50 of survival of HEK293-TrkB cells in serum-free media, without NT [9]: 0.9 µM | Kd [10]: 115 ± 66 nM

B3: cyclo-organopeptide 5c(iii) (peptide)
chain: CENNKC
modifications: linker 1-6 via sulfonated dichloro‑BODIPY dye
EC50 of survival of NIH3T3-TrkC cells in serum-free media, with suboptimal neurotrophin (0.2 nM NT-3) [11]: 0.9 µM | EC50 of survival of NIH3T3-TrkC cells in serum-free media, without NT [11]: 0.8 µM | Kd [12]: 91 ± 4 nM

B4: cyclo-organopeptide 5c(i) (peptide)
peptide: CDIRGC
modifications: linker 1-6 via sulfonated dichloro‑BODIPY dye
notes: flanking Cys of the CX1X2X3X4C-peptide; also called NT-3 loop (i) mimic; source: synthetic peptide (Fmoc SPPS), cyclised onto BODIPY, preparative HPLC
EC50 of survival of HEK293-TrkB cells in serum-free media, with suboptimal neurotrophin (0.6 nM BDNF) [9]: 2.2 µM | EC50 of survival of HEK293-TrkB cells in serum-free media, without NT [9]: 0.1 µM | Kd [10]: 43 ± 2 nM | Kd [12]: 97 ± 4 nM

B5: cyclo-organopeptide 5a(iii)m (peptide)
chain: CDEKQC
modifications: linker 1-6 via sulfonated dichloro‑BODIPY
EC50 of survival of HeLa-TrkA cells in serum-free media, with suboptimal neurotrophin (0.2 nM NGF) [5]: 0.5 µM | EC50 of survival of HeLa-TrkA cells in serum-free media, without NT [5]: 2.4 µM | Kd [8]: 120 ± 3 nM

From PMC11487604, “Selective, Intrinsically Fluorescent Trk Modulating Probes” (ACS Chemical Neuroscience, 2024)
